Reference: patent US12624112 (MABWELL SHANGHAI BIOSCIENCE, dated 2026)
Read-outs that look alike come from different tables or passages of the source.

T1: Human ST2-his (human, UniProt Q01638-2 19-328, limits assumed)
T1 construct: Expressed in CHO-K1; The printed range starts at Met1; also called human ST2 fused with a 6-histidine tag at the C-terminus
T1 sequence: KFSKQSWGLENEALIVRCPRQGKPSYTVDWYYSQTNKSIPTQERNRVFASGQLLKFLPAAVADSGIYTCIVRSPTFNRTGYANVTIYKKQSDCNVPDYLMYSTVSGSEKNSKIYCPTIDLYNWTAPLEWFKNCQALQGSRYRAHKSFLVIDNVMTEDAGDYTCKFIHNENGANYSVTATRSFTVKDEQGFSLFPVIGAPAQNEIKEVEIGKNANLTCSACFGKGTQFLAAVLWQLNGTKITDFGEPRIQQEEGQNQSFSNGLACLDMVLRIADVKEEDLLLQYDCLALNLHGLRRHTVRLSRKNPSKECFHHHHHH

T2: ST2 on the effector cells (KU812, KU812/NF-κB-1#, HUVEC, HMC-1) (human, UniProt Q01638 19-556)
T2 sequence (looked up): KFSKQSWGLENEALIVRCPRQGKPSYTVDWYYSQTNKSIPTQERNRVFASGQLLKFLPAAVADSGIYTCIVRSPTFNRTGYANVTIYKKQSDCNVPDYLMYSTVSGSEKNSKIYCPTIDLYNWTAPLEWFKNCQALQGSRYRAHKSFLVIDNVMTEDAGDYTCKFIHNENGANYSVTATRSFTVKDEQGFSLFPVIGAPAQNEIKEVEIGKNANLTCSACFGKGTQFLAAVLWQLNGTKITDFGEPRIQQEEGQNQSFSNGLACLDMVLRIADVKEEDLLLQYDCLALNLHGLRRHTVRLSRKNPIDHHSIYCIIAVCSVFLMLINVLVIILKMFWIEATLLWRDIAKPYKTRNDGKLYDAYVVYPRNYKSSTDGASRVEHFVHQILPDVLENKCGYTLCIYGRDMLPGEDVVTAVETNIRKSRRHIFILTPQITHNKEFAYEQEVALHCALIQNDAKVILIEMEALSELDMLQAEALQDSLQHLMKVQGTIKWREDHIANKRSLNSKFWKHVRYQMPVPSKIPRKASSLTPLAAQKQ


Columns and labels:
[1] = molecular target: Human ST2-fc (human) (UniProt Q01638); assay: competition ELISA: human ST2-fc coated, antibody titrated in a mixture with human IL33-his (blocked ligand), bound IL33-his detected with an anti-His secondary antibody, OD450-OD650 [continued), 9-4]
[2] = molecular target: T1, Human ST2-his; assay: SPR Biacore X100, antibody captured on protein A chip, human ST2-his injected, pH 7.4
How it was run: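 Antibody (2 µg/mL) captured 60 s on protein A; human ST2-his injected at six 2-fold dilutions from 20 nM, association 180 s, dissociation 700 s. Kinetics fitted to 1:1 binding model; glycine pH 2.0 regeneration.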

[3] = molecular target: T2, ST2 on the effector cells (KU812, …); assay: cell-based or functional assay
[4] = molecular target: T2, ST2 on the effector cells (KU812, …); assay: cell-based or functional assay; remark: listed apart in the source
[5] = molecular target: T1, Human ST2-his; assay: SPR Biacore X100, antibody captured on protein A chip, human ST2-his injected, dissociation at pH 5.5
Method: (§1) The experiment on the interaction between the anti-human ST2 antibodies and human ST2-his was performed using Biacore X100.
(§2) Each anti-human ST2 antibody was diluted to 2 µg/mL and captured on the surface of a protein A chip for a capture time of 60 s. Following the antibody capture, a solution of human ST2-his (2-fold gradient dilution from a starting concentration of 20 nM, to obtain 6 concentrations in total) was injected. Association was monitored for 180 s and dissociation was monitored for 700 s, and the sensor surface was regenerated by injecting a solution of glycine at pH 2.0. Kinetic data were analyzed using a simple 1:1 binding model.

[6] = molecular target: T2, ST2 on the effector cells (KU812, …); assay: cell-based or functional assay; remark: listed apart in the source
[7] = molecular target: Human ST2-fc (human) (UniProt Q01638); assay: competition ELISA, coated ST2-fc, competitor IL33-his
[8] = molecular target: T2, ST2 on the effector cells (KU812, …); assay: cell-based or functional assay; remark: listed apart in the source
[9] = molecular target: T1, Human ST2-his; assay: SPR Biacore X100, ratio of kd at pH 5.5 to kd at pH 7.4
Method: as §1, §2

[10] = molecular target: T2, ST2 on the effector cells (KU812, …); assay: cell-based or functional assay; remark: listed apart in the source
[11] = molecular target: T2, ST2 on the effector cells (KU812, …); assay: cell-based or functional assay; remark: listed apart in the source
[12] = molecular target: Human ST2-fc (human) (UniProt Q01638); assay: competition ELISA, coated ST2-fc, competitor IL33-his; remark: listed apart in the source

Row | Kd [2] | koff [2] | kon [2] | IC50, inhibition of HMC-1 IL8 production promoted by IL33 [3] | Maximum inhibition rate, HMC-1 IL8 production by IL33 [3] | Relative activity, HMC-1 IL8 production by IL33 [3] | IC50, inhibition of KU812-IL5 production promoted by IL-33 (human IL33-his) [4] | Maximum inhibition rate, KU812-IL5 production by IL-33 [4] | Relative activity compared with CNTO7160, KU812-IL5 production by IL-33 [4] | Kd [5] | koff [5] | kon [5] | IC50, inhibition of KU812-IL5 production promoted by reduced IL33 [6] | Maximum inhibition rate, KU812-IL5 production by reduced IL33 [6] | Relative activity, KU812-IL5 production by reduced IL33 [6] | IC50 [7] | Maximum inhibition rate [7] | Relative activity compared with CNTO7160 [7] | IC50, inhibition of HUVEC-IL6 production promoted by IL33 [8] | kd ratio of pH 5.5/pH 7.4 [9] | Binder | other results
1 | – | – | – | – | – | – | – | – | – | – | – | – | – | – | – | – | – | – | – | – | 5888-153-H2L0 (antibody, human IgG4 S228P, kappa, V domains shown) VH: QVQLVQSGAEVKKPGASVKVSCKASGYTFTDYELHWVRQAPGQGLEWMGTIDPETGDTVYNQKFKARVTMTADKSTSTAYMELSSLRSEDTAVYYCTRAFYNDYDEGFAYWGQGTLVTVSS VL: EIVLTQSPATLSLSPGERATLSCSVSSSVSYMHWYQQKPGQAPRLLIYDTSKLASGIPARFSGSGSGTDFTLTISSLEPEDFAVYYCQQWNSSPLTFGGGTKVEIKR | IC50 (read off the curve) [1]: 3 µg/mL
2 | 97 pM | 0.000148 s⁻¹ | 1.53e+06 M⁻¹ s⁻¹ | 0.0472 µg/mL | 86.8% | 213% | 0.00815 µg/mL | 97% | 742% | 122 pM | 0.000232 s⁻¹ | 1.9e+06 M⁻¹ s⁻¹ | 0.265 µg/mL | 86.9% | 554% | 0.553 µg/mL | 93.7% | 228% | 1.64 µg/mL | 1.57 | 5888-153-H3L1 (antibody, human IgG4 S228P, kappa, V domains shown, Humanized antibody) VH: QVQLVQSGAEVKKPGASVKVSCKASGYTFTDYELHWVRQAPGQGLEWMGTIDPETGDTVYNQKFKARVTMTADKSTSTAYMELSSLRSEDTAVYYCTRAFYNDYDDAFAYWGQGTLVTVSS VL: EIVMTQSPATLSLSPGERATLSCSVSSSVSYMHWYQQKPGQAPRRLIYDTSKLASGIPARFSGSGSGTDYTLTISSLEPEDAAVYYCQQWNSSPLTFGGGTKVEIKR | Maximum inhibition rate, HUVEC-IL6 production by IL33 [8]: 93%; Relative activity, HUVEC-IL6 production by IL33 [8]: 167%; IC50, inhibition of KU812-IL5 production promoted by oxidized IL33 [10]: 0.0136 µg/mL; Maximum inhibition rate, KU812-IL5 production by oxidized IL33 [10]: 101%; Relative activity, KU812-IL5 production by oxidized IL33 [10]: 162%; IC50, inhibition of activation of KU812-NF-κB reporter gene by IL33 [11]: 0.0394 µg/mL; Maximum inhibition rate, KU812-NF-κB reporter gene [11]: 86.1%; Relative activity compared with CNTO7160, KU812-NF-κB reporter gene [11]: 508%
3 | – | – | – | – | – | – | – | – | – | – | – | – | – | – | – | – | – | – | – | – | 5888-153-H2L1 (antibody, human IgG4 S228P, kappa, V domains shown) VH: QVQLVQSGAEVKKPGASVKVSCKASGYTFTDYELHWVRQAPGQGLEWMGTIDPETGDTVYNQKFKARVTMTADKSTSTAYMELSSLRSEDTAVYYCTRAFYNDYDEGFAYWGQGTLVTVSS VL: EIVMTQSPATLSLSPGERATLSCSVSSSVSYMHWYQQKPGQAPRRLIYDTSKLASGIPARFSGSGSGTDYTLTISSLEPEDAAVYYCQQWNSSPLTFGGGTKVEIKR | IC50 (read off the curve) [1]: 2 µg/mL
4 | 99.7 pM | 0.000176 s⁻¹ | 1.76e+06 M⁻¹ s⁻¹ | 0.0359 µg/mL | 87.2% | 280% | 0.0303 µg/mL | 99.1% | 201% | 70.6 pM | 0.000152 s⁻¹ | 2.15e+06 M⁻¹ s⁻¹ | 0.389 µg/mL | 83.6% | 377% | 0.3 µg/mL | 94.3% | 380% | 0.844 µg/mL | 0.86 | 5888-153-H0L1 (antibody, human IgG4 S228P, kappa, V domains shown, Humanized antibody) VH: QVQLVQSGAEVKKPGASVKVSCKASGYTFTDYELHWVRQAPGQGLEWMGTIDPETGDTVYNQKFKARVTMTRDTSTSTVYMELSSLRSEDTAVYYCARAFYNDYDDGFAYWGQGTLVTVSS VL: EIVMTQSPATLSLSPGERATLSCSVSSSVSYMHWYQQKPGQAPRRLIYDTSKLASGIPARFSGSGSGTDYTLTISSLEPEDAAVYYCQQWNSSPLTFGGGTKVEIKR | Maximum inhibition rate, HUVEC-IL6 production by IL33 [8]: 93%; Relative activity, HUVEC-IL6 production by IL33 [8]: 323%; IC50, inhibition of KU812-IL5 production promoted by oxidized IL33 [10]: 0.0147 µg/mL; Maximum inhibition rate, KU812-IL5 production by oxidized IL33 [10]: 101%; Relative activity, KU812-IL5 production by oxidized IL33 [10]: 150%; IC50, inhibition of activation of KU812-NF-κB reporter gene by IL33 [11]: 0.0438 µg/mL; Maximum inhibition rate, KU812-NF-κB reporter gene [11]: 88.2%; Relative activity compared with CNTO7160, KU812-NF-κB reporter gene [11]: 458%
5 | 104 pM | 0.000171 s⁻¹ | 1.65e+06 M⁻¹ s⁻¹ | 0.0944 µg/mL | 83.3% | 107% | 0.0755 µg/mL | 94.2% | 142% | 131 pM | 0.000245 s⁻¹ | 1.87e+06 M⁻¹ s⁻¹ | 0.522 µg/mL | 87.2% | 281% | 0.828 µg/mL | 93.7% | 152% | 3.69 µg/mL | 1.43 | 5888-153-H3L2 (antibody, human IgG4 S228P, kappa, V domains shown, Humanized antibody) VH: QVQLVQSGAEVKKPGASVKVSCKASGYTFTDYELHWVRQAPGQGLEWMGTIDPETGDTVYNQKFKARVTMTADKSTSTAYMELSSLRSEDTAVYYCTRAFYNDYDDAFAYWGQGTLVTVSS VL: EIVMTQSPATLSLSPGERATLSCSVSSSVSYMHWYQQKPGQAPRRLIYDTSKLASGIPARFSGSGSGTDYTLTISSLEPEDAAVYYCQQWNTSPLTFGGGTKVEIKR | Maximum inhibition rate, HUVEC-IL6 production by IL33 [8]: 91.8%; Relative activity, HUVEC-IL6 production by IL33 [8]: 73.9%; IC50, inhibition of KU812-IL5 production promoted by oxidized IL33 [10]: 0.0173 µg/mL; Maximum inhibition rate, KU812-IL5 production by oxidized IL33 [10]: 101%; Relative activity, KU812-IL5 production by oxidized IL33 [10]: 127%; IC50, inhibition of activation of KU812-NF-κB reporter gene by IL33 [11]: 0.0553 µg/mL; Maximum inhibition rate, KU812-NF-κB reporter gene [11]: 88.1%; Relative activity compared with CNTO7160, KU812-NF-κB reporter gene [11]: 362%
6 | 515 pM | 0.000702 s⁻¹ | 1.36e+06 M⁻¹ s⁻¹ | – | – | – | 0.0948 µg/mL | 97.9% | 107% | 2670 pM | 0.0269 s⁻¹ | 1.01e+07 M⁻¹ s⁻¹ | – | – | – | – | – | – | – | 38.4 | 5888-379-H2L2 (antibody, human IgG4 S228P, kappa, V domains shown, Humanized antibody) VH: QVQLVQSGAEVKKPGASVKVSCKASGYTFINYGMNWVRQAPGQRLEWMGWINTYIGEPTYGDNFKGRVTITRDTSASTAYMELSSLRSEDTAVYYCAREGDAFAYWGQGTLVTVSS VL: DIVMTQSPDSLAVSLGERATINCKSSQSLLYSGNQNNYLAWYQQKPGQPPKLLIYGASTRESGVPDRFSGSGSGTDFTLTISSLQAEDVAVYYCQNDHSYPYTFGGGTKVEIKR | IC50 [12]: 0.402 µg/mL; Maximum inhibition rate [12]: 86%; Relative activity compared with CNTO7160 [12]: 219%
